T1: TPX2 amino acids 1-260 (Xenopus laevis, UniProt Q6NUF4 1-260)
T1 sequence (looked up): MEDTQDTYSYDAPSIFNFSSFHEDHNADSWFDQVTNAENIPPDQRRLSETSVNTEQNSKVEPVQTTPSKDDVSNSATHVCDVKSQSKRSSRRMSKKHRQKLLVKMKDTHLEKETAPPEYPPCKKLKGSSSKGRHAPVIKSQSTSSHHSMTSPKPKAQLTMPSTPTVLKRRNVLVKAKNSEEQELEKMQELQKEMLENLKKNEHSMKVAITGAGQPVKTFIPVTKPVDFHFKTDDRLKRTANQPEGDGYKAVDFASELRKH

T2: TPX2 amino acids 1-178 (Xenopus laevis, UniProt Q6NUF4 1-178)
T2 sequence (looked up): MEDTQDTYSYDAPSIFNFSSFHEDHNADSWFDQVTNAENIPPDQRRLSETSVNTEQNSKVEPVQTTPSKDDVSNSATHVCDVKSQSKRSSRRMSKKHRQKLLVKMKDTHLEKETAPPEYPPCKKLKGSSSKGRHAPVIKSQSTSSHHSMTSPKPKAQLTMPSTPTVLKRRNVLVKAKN

B1: importin-αΔIBB (importin-α without the importin-β binding domain) (domain or fragment)
chain: not shown
B2: importin-α/β heterodimer (GST-importin-α bound to importin-β) (complex)
chain 1: not shown
chain 2: MELVTILEKTVSPDRNELEAAQKFLEQAAVENLPTFVVELSKVLANPANSQVARVAAGLQIKNPLTSRDPDVKAQYQQRWLAIDASARGEIKTYVLRTLGTESYRPSSASQCVAGIACAEITVNQWPQLIPQLVANVTDPNSTERMKESTLEAIGYICQDIDPEQLQHKSNEILTAIIQGMRKEEPSNNVRLAATNALLNSLEFTKANFDKESERHYIMQVVCEATQCPDTRVRVAALQNLVKIMSLYYQYMETYMGPALFAITVEAMKNEIDEVALQGIEFWSNVCDEEMDLAIEASEAAEQGRPPEHTSKFYAKGALQYLVPILTQTLTKQDENDDDDDWNPCKAAGVCLMLLATCCEDDIVPHVLPFIKEHIKNPDWRYRDAAVMAFGCILEGPESCQLKPLVIQAMPTLIELMKDPSVVVRDTTAWTVGRICELLPEAAINDVYLAPLLQCLIEGLGAEPRVASNVCWAFSSLAEAAYEAADVADDQEEPSSYCLSSSFEVIVQKLLETTDRPDGHQNNLRSAAYEALMEIVKNSAKDCYPAVQKTTLVIMERLQQVLQVESHIQSTSDRIQFNDLQSLLCATLQNVLRKVQHQDALQISDVVMASLLRMFQSTAGSGGVQEDALMAVSTLVEVLGAEFLKYMEAFKPFLTIGLKNYAEYQVCLAAVGLVGDLCRALQSNILPFCDEMMQFLLENLGNENVHRSVKPQILSVFGDVALAIGGEFKKYLDVVLNTLQQASQAQVDKSDYDMVDYLNELREGCIEAYTGIIQGLKGDQENVHPDVMLVQPRVEFILSFIDHIAGDEDHTDSVVACGAGLIGDLCTAFGKDVLKLVEARPMIHELLTEGRRSKTNKTKTLATWATKELRKLKNQA
B3: importin-β (natural protein, Xenopus laevis, UniProt P52297 1-876, looked up)
chain: B2 chain 2
B4: Targeting Protein for XKlp2 (TPX2), full length, GFP-tagged (natural protein, Xenopus laevis, UniProt Q6NUF4 1-716, looked up)
chain: MEDTQDTYSYDAPSIFNFSSFHEDHNADSWFDQVTNAENIPPDQRRLSETSVNTEQNSKVEPVQTTPSKDDVSNSATHVCDVKSQSKRSSRRMSKKHRQKLLVKMKDTHLEKETAPPEYPPCKKLKGSSSKGRHAPVIKSQSTSSHHSMTSPKPKAQLTMPSTPTVLKRRNVLVKAKNSEEQELEKMQELQKEMLENLKKNEHSMKVAITGAGQPVKTFIPVTKPVDFHFKTDDRLKRTANQPEGDGYKAVDFASELRKHPPSPVQVTKGGHTVPKPFNLSKGKRKHEEASDYVSTAEQVIAFYKRTPARYHLRSRQREMEGPSPVKMIKTKLTNPKTPLLQTKGRHRPVTCKSAAELEAEELEMINQYKFKAQELDTRILEGGPVLLKKPLVKEPTKAIGFDLEIEKRIQQREKKEEIEEETFTFHSRPCPSKMLTDVVGVPLKKLLPVTVPQSPAFALKNRVRIPAQEEKQEEMVPVIKATRMPHYGVPFKPKLVEQRQVDVCPFSFCDRDKERQLQKEKRLDELRKDEVPKFKAQPLPQFDNIRLPEKKVKMPTQQEPFDLEIEKRGASKLQRWQQQIQEELKQQKEMVVFKARPNTVVHQEPFVPKKENRSLTESLSGSIVQEGFELATAKRAKERQEFDKCLAETEAQKSLLEEEIRKRREEEEKEEISQLRQELVHKAKPIRKYRAVEVKASDVPLTVPRSPNFSDRFKC
B5: TPX2 N-terminus (a.a. 1-480) (domain or fragment, Xenopus laevis, UniProt Q6NUF4 1-480, looked up)
chain: MEDTQDTYSYDAPSIFNFSSFHEDHNADSWFDQVTNAENIPPDQRRLSETSVNTEQNSKVEPVQTTPSKDDVSNSATHVCDVKSQSKRSSRRMSKKHRQKLLVKMKDTHLEKETAPPEYPPCKKLKGSSSKGRHAPVIKSQSTSSHHSMTSPKPKAQLTMPSTPTVLKRRNVLVKAKNSEEQELEKMQELQKEMLENLKKNEHSMKVAITGAGQPVKTFIPVTKPVDFHFKTDDRLKRTANQPEGDGYKAVDFASELRKHPPSPVQVTKGGHTVPKPFNLSKGKRKHEEASDYVSTAEQVIAFYKRTPARYHLRSRQREMEGPSPVKMIKTKLTNPKTPLLQTKGRHRPVTCKSAAELEAEELEMINQYKFKAQELDTRILEGGPVLLKKPLVKEPTKAIGFDLEIEKRIQQREKKEEIEEETFTFHSRPCPSKMLTDVVGVPLKKLLPVTVPQSPAFALKNRVRIPAQEEKQEEMVPVI

Key:
[1] = target: the molecule itself; assay: SEC-MALS
[2] = target: B4; assay: SEC-MALS
[3] = target: B4; assay: BLI
[4] = target: T1, TPX2 amino acids 1-260; assay: BLI
[5] = target: T2, TPX2 amino acids 1-178; assay: BLI
[6] = target: GST-importin-α (full length) (Xenopus laevis); assay: SEC-MALS
[7] = target: B3; assay: BLI
[8] = target: B2; assay: BLI

Binder: B1
stoichiometry N [1]: 2
stoichiometry N [2]: ≥ 1
Kd [3]: 61 ± 10 nM
Kd [4]: 20 ± 4 nM
Kd [5]: 15 ± 3 nM

Binder: B2
stoichiometry N [2]: 1

Binder: B3
stoichiometry N [6]: 1

Binder: B4
Kd [7]: 530 ± 75 nM
Kd [8]: 75 ± 15 nM

Binder: B5
Kd [7]: 512 ± 70 nM

Reference: paper doi:10.1101/2020.09.01.276469 (bioRxiv, 2020)
